Test results: publication PMC10112228

Molecular target: His-CcpA (nonphosphorylated) (Streptococcus pneumoniae D39) (UniProt A0A0H2ZQ65)
Test: EMSA

For “CTTTCTGTGAACGTGATTTTTTAAAACGTCTACTCATGATTAACACCTATACATTGAACATCTTACGATTATATCACTTTTTTACGGTAATGTCTACACCTTTTTTCACTATCTGCATCTTTAAGTATCTTAGTAGACTTCCCGCGAACCAAAAATATAGTAAAATGAAATAAGAACATGACAAATTGATCAGGACAGTCAAATCGTTTTCTAACAATATTTTAGAAGCAGATGTGTACTATTCTAGTTTCAATATAATATAGTACACAATGTGGTATAATCTTTTT (double strand) [Pcps2A (-250/+35)]”, which binding is on record?
The binding was “binds”.
